In patent US20080274100A1:

Experiments:
Experiment in all cases: peptide ELISA, 0.5 µg/well scFv
[1] = target: PSGL-1 (residues 42-58) derived peptide, non-sulfated
[2] = target: PSGL-1 (residues 42-58) derived peptide, sulfated at 2nd tyrosine position
[3] = target: CCR5 (residues 1-18) derived peptide, sulfated at 1st tyrosine position
[4] = target: GPIb (residues 268-285) derived peptide, sulfated at 1st tyrosine position
[5] = target: CCR5 (residues 1-18) derived peptide, sulfated at 2nd tyrosine position
[6] = target: PSGL-1 (residues 42-58) derived peptide, sulfated at 1st tyrosine position
[7] = target: GPIb (residues 268-285) derived peptide, non-sulfated
[8] = target: CCR5 (residues 1-18) derived peptide, non-sulfated
[9] = target: CCR5 (residues 1-18) derived peptide, sulfated at 3rd tyrosine position
[10] = target: GPIb (residues 268-285) derived peptide, sulfated at 3rd tyrosine position
[11] = target: PSGL-1 (residues 42-58) derived peptide, sulfated at 3rd tyrosine position

- ELISA read-out at 450 nm [1]: 0.06 OD 450 nm
- ELISA read-out at 450 nm [2]: 0.06 OD 450 nm
- ELISA read-out at 450 nm [3]: 0.06 OD 450 nm
- ELISA read-out at 450 nm [4]: 0.07 OD 450 nm
- ELISA read-out at 450 nm [5]: 0.06 OD 450 nm
- ELISA read-out at 450 nm [6]: 0.06 OD 450 nm
- ELISA read-out at 450 nm [7]: 0.07 OD 450 nm
- ELISA read-out at 450 nm [8]: 0.06 OD 450 nm
- ELISA read-out at 450 nm [9]: 0.06 OD 450 nm
- ELISA read-out at 450 nm [10]: 0.07 OD 450 nm
- ELISA read-out at 450 nm [11]: 0.06 OD 450 nm
Substance: N06 scFv (negative control)
